Source: the DeepSol protein solubility set

Test: soluble on expression in E. coli; label from the status in PepcDB or PDB records

Sequence | soluble on expression in E. coli
MAKEKKRGFFSWLGLGRQSEEPAAEPLATEKEGVTEQEDVIEQTGVIEPTDVIEQTVEHVISEKTTEAPAENAFIEVELREQVAAVIPTEPNNAIMSEGVPDTLPERAVAESVVAELVETGDNAAIVHDEIIEPITQVTEAGGELSLVKPGIEGDTTEQGGPTDNLPKRSLTEDNLIIDVPTPQAVVEESRVDAVEQPTETSEVEEVEEVEEVEEVEEVEEKIIPVAAQEQERPTKEGFFARLKRSLIKTKQNLGSGFMGLFSGKKIDDDLFEELEEQLLIADVGVETTRKIITSLTEHTSRKQLKDADALYGKLKEEMSEILSKVDKPLDVSGKSPYVILMVGVNGVGKTTTIGKLARQFQAEGKSVMLAAGDTFRAAAVEQLQVWGERNKIAVVAQHTGADSASVIFDAIQAAKARGIDVLLADTAGRLQNKAHLMEELKKIVRVMKKLDGDAPHEVMLTLDASTGQNAVSQAKLFNEAVGLTGITLTKLDGTAKGGVIFAIADQFEIPIRYIGVGEGIEDLRPFKADEFIEALFARED | not soluble
MAKEKTVYVCSNCGQESPKWVGKCPSCGEWNTYVEEIVRKETTNRRPVSGIETQKAKPVILSEIEADDEPRINMHDDELNRVLGGGLVPGSLVLIGGEPGIGKSTLVMQTVLRMPDKKILYVSGEESARQLKLRADRLSEVSSDCLIVCETSLEQIYVHIKNTSPDLVIIDSIQTISTENIESSPGSIAQVRECSASILRFAKETHTPVLLIGHINKEGSIAGPKVLEHIVDTVLQFEGDQHYMYRILRSIKNRFGSTAELGIYEMRQDGLRQVSNPSELLLSQDHEGMSGVAIASAIEGVRPFLIETQALVSSAVYGNPQRSATGFDIRRMNMLLAVLEKRVGFKLAQKDVFLNIAGGLKVNDPAIDLAVISAILSSNMDAAVEPEVCMAGEIGLSGEIRPVNRIEQRIGEAEKLGFKRFLLPKYNLQGIDTQKLKIELVPVRKVEEAFRALFG | not soluble
MAKMRISPELKKLIEKYRSVKDTEGMSPAKVYKLVGENENLYLKMTDSRYKGTTYDVEREKDMMLWLEGKLPVPKVLHFERHDGWSNLLMSEADGVLCSEEYEDEQSPEKIIELYAECIRLFHSIDISDCPYTNSLDSRLAELDYLLNNDLADVDSENWEEDTPFKDPRELYDFLKTEKPEEELVFSHGDLGDSNIFVKDGKVSGFIDLGRSGRADKWYDIAFCVRSIREDIGEEQYVELFFDLLGIKPDWEKIKYYILLDELF | soluble
MAKNKTVFSCTECGGQSPKWQGQCPHCSAWNTLVEAVAAPAAASPRFQSWAANVTKVQKLSEVQTEETPRDPSGIDELDRVLGGGIVRGAVVLIGGDPGIGKSTLLLQALSQIGRSRKVLYVSGEESAQQIALRASRLALDTSSVDLLAEICIENILETLKREQPEVVVIDSIQTLYTEQVTSAPGSVSQVRECAAQLTRMAKQSGITVLLVGHVTKEGSLAGPRVLEHMVDTVLYFEGDSHSSYRMIRAIKNRFGAVNELGVFAMTDRGLKGVSNPSAIFLSSYRDDVAGSCVLVTQEGTRPLLVEIQALVDDCHGFQPKRLTVGLEQNRLSMLLAVLHRHGGVACFDQDVFLNAVGGVKINEPAADLAIILAMVSSLRNKALPEKLVVFGEVGLAGEVRPVTRGQERLKEAAKLGFTRAIVPTANKPRQEIEGLKVLAVDRLDQAVEYCRE | not soluble
MAKNSKFDRVQVVDKAVDLYWEKGFHGTSMRNLQEVIDMRPGSIYATFGSKEGLFKESLQRYTQSGILHLEQCCHEQKSPLLGLKSFIHNIVVEKRSSAPSGMCMLVKTVTELTNENEELLTEAKRSLKIMESEFEKVLRQAQEIGEIEKEKDTKQLAQFVQVQIAGLRTYARTVDSDLPLQNMLDNMFSHYPF | not soluble
MAKQDVIELEGTVLDTLPNAMFKVELENGHEILAHVSGKIRMNYIRILPGDKVTVEMSPYDLTRGRITYRYK | not soluble
MAKVKRRDLLKAGAALAAAGTLGKGFAQEFYASPPTLLPRSRAPRVVVVGGGWGGTTVARKVKQQNPGVEVVLVEQKPIFMSCPMSNLFLAGVKPLEWLVFDYTNVVKDGVIFVQEKVLEINRDRRLVRTTGGYLAYDFLVLAPGIDYMYEAIPGYEEAKHFLPVGFKPFEHIALRRMLDRFDETGGELVMYIPPPPYRCPPGPYERAAMLAWRLKTKGVKGKVIVLDANPQPLAKAPGFLAAYNELYKDYLEYQPNMRITGLDYEKKVVRTELGDYPFTLANVIPPMKAAEIVRQAGLGERWANVRIPYFLSEADDRVYLVGDITGNTPYPKSGMIAYVSGTIVARHLTERLKGKPLAEIPPELPTNICYSFVDSEEAIWVSANYSWDEAEKRIKAQSQVDNQRSKANGEAAIGWALGLWNDMFGPA | soluble
MAKVLVLNASYEPLNITSWQRAVVLLIKGKAEQVEHNGKMVYNNFPLPTVIRLRHYVVTPYKEIPLTRRNILHRDGHSCQYCGYTGDELTLDHVIPKSRGGGETWENIVTACVRCNVKKGNRTPKEANMPLRQTPRRPISSLYFEVTKHVRTGTHQEWRKYVIGALEHHHHHH | not soluble
MAKYQELVEQLKRQIKSGIWHPGDKLPSLRRQSEHSGLSLMTVLHAYQILESQGWVTSQPRSGYRVAPNIKSSNEPQAPAAVSWTEQVDINEFIFDVLQASKNPSMINFGFAYPDPSLYPRYHVNRAMSAAARNMPISTTFDNLPPGNEQLRTIIAKRYAAKGIEISPDEIVITAGALEALTLSLQACTRPGDWVVVESPAFYGALQSLERLGLKALSVRTDPVTGIDLDSLERALQTHDVKACWLMSNFQNPLGFTLSNEKKQKLIELTQRYNVPVIEDDVYSELHAENDSVYPLRMFDDTGNTMLCSSFSKSLIAGLRIGWVAAGKRALEVQKLQLMSTLATSAPVQMTLVHYLTSRNYESHLKQLRKKLFERKSKMTNLLNELLPEEVKVLSQSGGYFIWLELPKHIDALQIYREALKDNISIAPGKMFSLTEQYDHCIRLNASFELNDKYVHALNLLANIIRDHLAK | not soluble
MALEFTTLPQLYAHDYDTVIDVRSPAEFAEDHLPGAINLPVLDNEERARVGTIYKQQSPFLARKLGAALVFRNAASHVEQSLSHHEGHWRPLVYCWRGGQRSGSFTWMLQQIGWRAEVVSGGYRTYRRLVNRYLYEDPLPHRLVALDGFTGTAKTEILARLPALGVQMLDLEALANHRGSLLGARPGGQPEQKAFESALAAALCRLDPTRPVVVEAESSRIGERILPPSLWAALCAAPRIEIEAPVAARSAYLTAAYDDILSDAETLTARLDPLRYHRGHAVVEGWLALVAAGDKHGVTRALMEQHYDPAYRKSRASHAVQVAARLRSDTLDHAGIDTLTAQVAAVLKAL | not soluble
MALICELDEQWSYVGSKARLHWLWYAYNTKTGGVLAYTFGPRTDQTCRELLALLTPFNIGMLTSDDWDSYGRVVPKNKHLTGKIFTQRIERNNLTLRTHIKRLARKQSASHAQLRSTKK | not soluble
MALKDLFSGFFVVEEEDDELEAPPEENEQQERQQPKQQAQSQNQFTEQPRNVNSERPRSIQSVPKKQSTRLQQSSGERKYQMNNTTSKNNARNVVNMNNQEQENYDFTQESSKMCLFEPRVFSDTQDIADELKNRRATLVNLQRIDKVSAKRIIDFLSGTVYAIGGDIQRVGSDIFLCTPDNVEVAGSITDQIENMEYQGELEHHHHHH | not soluble
MALKLPIPHNILILNRNSALELLRALKEVPKLIITRIPPDEWPDVAYTEYIWLSRVEGPNSVSPTALHVIIERAKTFLDENSGGVIYVDGIEYIMLYEEFKSVAKFLLTLKDIAVVKEGHLILHVDPKTLEDHQMAVLEREFVKINVEETIEKIRGPTLFGALIEEKGLEHHHHHH | soluble
MALLPAVRRYGRLTRATGLVLEATGLQLPLGATCIIERQDGPETKEVESEVVGFNGQRLFLMPLEEVEGILPGARVYARNGHGDGLQSGKQLPLGPALLGRVLDGGGKPLDGLPAPDTLETGALITPPFNPLQRTPIEHVLDTGVRAINALLTVGRGQRMGLFAGSGVGKSVLLGMMARYTRADVIVVGLIGERGREVKDFIENILGPDGRARSVVIAAPADVSPLLRMQGAAYATRIAEDFRDRGQHVLLIMDSLTRYAMAQREIALAIGEPPATKGYPPSVFAKLPALVERAGNGIHGGGSITAFYTVLTEGDDQQDPIADSARAILDGHIVLSRRLAEAGHYPAIDIEASISRAMTALITEQHYARVRLFKQLLSSFQRNRDLVSVGAYAKGSDPMLDKAITLWPQLEAFLQQGIFERADWEDSLQALDLIFPTV | soluble
MALQSSVRAFKKPPRPLVDEVRFLRSWIEKPLHMGAVMPSGKLLARTMARYVDIQSDGPVIELGPGTGAITNALVEHGVDQKRLVLLEFDPGFCALLRERFPLAKVVQGDAYRLRDSLWDALEIPATAVVSGLPLVTKPMLTRMKLIRDAFTLLEPGAPFVQFTYSVAPPIPKSLPGVSTEGSERIWMNVPPARVWVYRKRLEHHHHHH | not soluble
MALRFITAEEAAEFVHHNDNVGFSGFTPAGNPKVVPAAIAKRAIAAHEKGNPFKIGMFTGASTGARLDGVLAQADAVKFRTPYQSNKDLRNLINNGSTSYFDLHLSTLAQDLRYGFYGKVDVAIIEVADVTEDGKILPTTGVGILPTICRLADRIIVELNDKHPKEIMGMHDLCEPLDPPARRELPVYTPSDRIGKPYVQVDPAKIVGVVRTSEPNDESDFAPLDPVTQAIGDNVAAFLVSEMKAGRIPKDFLPLQSGVGNVANAVLGALGDNPDIPAFNMYTEVIQDAVIALMKKGRIKFASGCSLSVSRSVIQDIYANLDFFKDKILLRPQEYSNNPEIVRRLGVITINTALEADIFGNINSTHVSGTRMMNGIGGSGDFTRNSYVSIFTTPSVMKDGKISSFVPMVAHHDHSEHSVKVIISEWGVADLRGKNPRERAHEIIDKCVHPDYRPLLRQYLELGVKGQTPQNLDCCFAFHQELAKSGDMRNVRWEDYMK | not soluble
MALRNVPFRSEVLGWDPDSLADYFKKLNYKDCEKAVKKYHIDGARFLNLTENDIQKFPKLRVPILSKLSQEINKNEERRSIFTRKPQVPRFPEETESHEEDNGGWSSFEEDDYESPNDDQDGEDDGDYESPNEEEEAPVEDDADYEPPPSNDEEALQNSILPAKPFPNSNSMYIDRPPSGKTPQQPPVPPQRPMAALPPPPAGRNHSPLPPPQTNHEEPSRSRNHKTAKLPAPSIDRSTKPPLDRSLAPFDREPFTLGKKPPFSDKPSIPAGRSLGEHLPKIQKPPLPPTTERHERSSPLPGKKPPVPKHGWGPDRRENDEDDVHQRPLPQPALLPMSSNTFPSRSTKPSPMNPLPSSHMPGAFSESNSSFPQSASLPPYFSQGPSNRPPIRAEGRNFPLPLPNKPRPPSPAEEENSLNEEWYVSYITRPEAEAALRKINQDGTFLVRDSSKKTTTNPYVLMVLYKDKVYNIQIRYQKESQVYLLGTGLRGKEDFLSVSDIIDYFRKMPLLLIDGKNRGSRYQCTLTHAAGYP | soluble
MALVNEHFLKLPGSYLFSDIAKKVNTFKITHPKQDIIRLGIGDVTQPLPKACIEAMHKAVEELASKDTFRGYGPEQGYDFLIEAIIKNDFAPRGIHFSPSEIFVNDGAKSDTGNIGDILRHDNSVGVTDPIYPVYIDSNVMCGRAGVLEEGTGKWSNVTYMPCTSENDFIPEIPDKRIDIVYLCYPNNPTGTTLTKPELKKWVDYALANDTLILFDAAYEAYIQDADVPHSIYEIKGAKKCAIEFRSFSKTAGFTGVRCGYTVVPKELTAATLEGDRIPLNKLWNRRQCTKFNGTSYITQRAAEAVYSTEGKAQIKETINYYMSNAKIMKEGLEATGLKVYGGVNAPYLWVKTPNGLSSWRFFEQMLYEANVVGTPGVGFGPSGEGYIRLTAFGDHNDCMEAMRRIKNWL | not soluble
